Experimental data: PMC2662861, “An unexpected phosphate binding site in Glyceraldehyde 3-Phosphate Dehydrogenase: Crystal structures of apo, holo and ternary complex of Cryptosporidium parvum enzyme” (BMC Structural Biology, 2009)
Positions count from the first letter of the chain named. Names may count otherwise.

B1: Cryptosporidium parvum glyceraldehyde 3-phosphate dehydrogenase, wild type (enzyme)
chain: MTATLGINGFGRIGRLVLRACMERNDITVVAINDPFMDVEYMAYLLKYDSVHGNFNGTVEVSGKDLCINGKVVKVFQAKDPAEIPWGASGAQIVCESTGVFTTEEKASLHLKGGAKKVIISAPPKDNVPMYVMGVNNTEYDPSKFNVISNASCTTNCLAPLAKIINDKFGIVEGLMTTVHSLTANQLTVDGPSKGGKDWRAGRCAGNNIIPASTGAAKAVGKVIPALNGKLTGMAIRVPTPDVSVVDLTCKLAKPASIEEIYQAVKEASNGPMKGIMGYTSDDVVSTDFIGCKYSSIFDKNACIALNDSFVKLISWYDNESGYSNRLVDLAVYVASRGL
notes: glyceraldehyde 3-phosphate dehydrogenase of Cryptosporidium parvum; Homotetramer; Crystallised as apoenzyme and, after incubation with 2 mM NAD, as holoenzyme; also called CpGAPDH; C. parvum GAPDH; source: E. coli, purified (Ni-NTA, SP Sepharose cation exchange, Superdex 200); not shown: His6, N-terminal, kept
B2: Cryptosporidium parvum glyceraldehyde 3-phosphate dehydrogenase, C153S active site mutant (enzyme)
chain: B1 chain with C153S
notes: also called C153S mutant CpGAPDH; C153S CpGAPDH; source: E. coli, purified (Ni-NTA, SP Sepharose cation exchange, Superdex 200); not shown: His6, N-terminal, kept

Biological target: the molecule itself
Test: crystal structure

Protein	stoichiometry N
B1	4
B2	4
